The data set “SPR” concerns the molecule itself. Briefly: SPR. (In general: SPR reads the build-up and loss of mass on a sensor chip optically.)
The data set “SEC” deals with the molecule itself. Briefly: SEC. For orientation: SEC sorts molecules by how far they enter the pores of the column.

B1: glutathionylated T2D/A4V-SOD1 (GS-T2D/A4V-SOD1), C111-glutathionylation enriched species (enzyme)
chain: not shown
modifications: glutathionylation at C111 (enriched species); for SPR: biotinylated on one subunit (EZ-link NHS-LC-LC-biotin)
Broadly, the koff is a measure of how fast the partners let go of each other. A high value points to a short-lived complex. For orientation: stoichiometry N means the number of molecules, sites or subunits per partner or assembly. Consider B1, for which the koff in “SPR” turned out to be 0.000161 s⁻¹. The “stoichiometry N” value in “SEC” worked out at 2.

B2: double mutant T2D/A4V-SOD1, unmodified (enzyme)
chain: not shown
modifications: for SPR: biotinylated on one subunit (EZ-link NHS-LC-LC-biotin)
As for B2, in the data set “SPR”, the dissociation rate constant (koff) came out at 0.000156 s⁻¹. Further, the “stoichiometry N” value in the data set “SEC” worked out at 2.

These data come from publication PMC5093072 (Structure (London, England : 1993), 2016).
